T1: Human CD37 (human, UniProt P11049 1-278)
T1 sequence: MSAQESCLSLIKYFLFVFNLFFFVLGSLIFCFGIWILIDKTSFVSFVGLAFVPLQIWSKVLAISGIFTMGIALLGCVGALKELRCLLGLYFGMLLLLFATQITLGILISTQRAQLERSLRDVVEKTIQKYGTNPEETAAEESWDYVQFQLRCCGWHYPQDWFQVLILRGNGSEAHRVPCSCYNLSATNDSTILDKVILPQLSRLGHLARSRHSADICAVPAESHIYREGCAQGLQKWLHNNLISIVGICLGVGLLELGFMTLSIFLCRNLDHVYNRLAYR

T2: Murine CD37 (murine, UniProt Q61470 1-281)
T2 construct: Endogenous muCD37 on 300-19 murine pre-B cells and on wild type mouse spleen B cells; also called muCD37
T2 sequence: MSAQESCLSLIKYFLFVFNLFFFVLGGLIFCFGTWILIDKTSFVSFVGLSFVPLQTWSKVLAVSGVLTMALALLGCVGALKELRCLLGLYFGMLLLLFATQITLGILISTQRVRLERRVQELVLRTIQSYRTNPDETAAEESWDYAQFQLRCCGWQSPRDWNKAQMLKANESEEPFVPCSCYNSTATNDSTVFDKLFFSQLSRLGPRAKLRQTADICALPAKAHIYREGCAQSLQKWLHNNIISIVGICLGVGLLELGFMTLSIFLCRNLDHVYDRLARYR

B1: huCD37-3 (antibody, V domains shown)
VH: QVQVQESGPGLVAPSQTLSITCTVSGFSLTTSGVSWVRQPPGKGLEWLGVIWGDGSTNYHPSLKSRLSIKKDHSKSQVFLKLNSLTAADTATYYCAKGGYSLAHWGQGTLVTVSS
VL: DIQMTQSPSSLSVSVGERVTITCRASENIRSNLAWYQQKPGKSPKLLVNVATNLADGVPSRFSGSGSGTDYSLKINSLQPEDFGTYYCQHYWGTTWTFGQGTKLEIKR
B2: huCD37-3-SMCC-DM1 (antibody, V domains shown)
VH: B1 VH
VL: B1 VL
modifications: DM1 maytansinoid linked via SMCC; sites, chain and drug load in the assay not stated
B3: huCD37-50 (antibody, human IgG1, kappa, V domains shown)
VH: QVQLQESGPGLLKPSQSLSLTCTVSGYSITSGFAWHWIRQHPGNKLEWMGYILYSGSTVYSPSLKSRISITRDTSKNHFFLQLNSVTAADTATYYCARGYYGYGAWFAYWGQGTLVTVSA
VL: EIVLTQSPATMSASPGERVTMTCSATSSVTYMHWYQQKPGQSPKRWIYDTSNLPYGVPARFSGSGSGTSYSLTISSMEAEDAATYYCQQWSDNPPTFGQGTKLEIKR
B4: huCD37-50-SMCC-DM1 (antibody, human IgG1, kappa, V domains shown)
VH: B3 VH
VL: B3 VL
modifications: DM1 maytansinoid linked via SMCC; sites, chain and drug load in the assay not stated
B5: anti-muCD37 monoclonal antibody clone 252-3 (antibody, mouse IgG2a, V domains shown)
VH: EVQVVESGGDLVKPGGSLKLSCAASGFTFSSYGMSWVRQTPDKRLEWVATISSGGSYTYSPDSVKGRFTISRDNAKKTLYLQMSSLKSEDTAMYYCARHSYYDTSVDYWGQGTSVTVSS
VL: DIQMTQTTSSLSASLGDRVTISCRASQDISNYLNWYQQKPDGTVKLLIYYTSKLHSGVPSRFSGSGSGTDYSLTISNLEQEDIATYFCQQGNALPWTFGGGTKLELKR

Columns and labels:
Human CD37 [1] = biological target: T1, Human CD37; test: cell-based or functional assay
Murine CD37 = biological target: T2, Murine CD37; test: flow cytometry titration on 300-19 murine pre-B cells expressing muCD37; anti-muIgG-PE detection; EC50 of the curve taken as the apparent Kd
Method: Cells were then washed and counterstained with anti muIgG-PE conjugate (Jackson Immunoresearch, West Grove, Pa.) for 30 minutes at 4° C. The cells were finally washed, fixed in formalin and analyzed by flow cytometry using a FACSarray (BD Bioscience, San Jose, Calif.). The flow cytometry data were analyzed using FlowJo (Tree Star Inc., Ashland, Oreg.) and the geometric mean fluorescence intensity was plotted against the antibody concentration in a semi-log plot (FIG. 8). A dose-response curve was generated by non-linear regression and the EC50 value of the curve, which corresponds to the apparent dissociation constant (Kd) of the antibody, was calculated using GraphPad Prism (GraphPad Software Inc., La Jolla, Calif.).

Human CD37 [2] = biological target: T1, Human CD37; test: flow cytometry on human tumor cells expressing human CD37

Row | Binder | in vitro depletion of B-cells, whole human blood, 10 µg/mL, one donor (Human CD37 [1]) | EC50 of in vitro B-cell depletion, purified human PBMCs, two donors (Human CD37 [1]) | Kd (Murine CD37) | binding result (Human CD37 [2])
1 | B1 | ~40% | – | – | –
2 | B2 | ~40% | 0.04 to 0.075 µg/mL | – | –
3 | B3 | ~40% | – | – | –
4 | B4 | ~40% | – | – | –
5 | B5 | – | – | 14 nM | no binding

Reference: patent US20120276119A1 (IMMUNOGEN, published 2012)
